Source: patent publication US20220204643A1 (published 2022)

What was measured:
[1] = target: T1, Deoxyhypusine synthase (human, UniProt P49366 1-369); experiment: protein array
T1 construct: on protein array; also called DHPS
T1 sequence: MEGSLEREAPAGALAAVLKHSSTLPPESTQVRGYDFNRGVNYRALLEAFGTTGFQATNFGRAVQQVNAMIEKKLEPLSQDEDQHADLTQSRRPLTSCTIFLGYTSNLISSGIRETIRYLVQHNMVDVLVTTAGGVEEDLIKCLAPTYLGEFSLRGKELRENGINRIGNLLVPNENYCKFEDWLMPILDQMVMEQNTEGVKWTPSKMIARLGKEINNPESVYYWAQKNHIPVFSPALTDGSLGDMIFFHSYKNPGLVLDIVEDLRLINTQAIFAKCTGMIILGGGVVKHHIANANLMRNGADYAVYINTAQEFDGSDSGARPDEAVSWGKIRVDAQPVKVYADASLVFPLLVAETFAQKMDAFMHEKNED

[2] = target: T2, HEAT repeat containing 3, transcript variant 1 (human, UniProt Q7Z4Q2 1-680); experiment: protein array, with experimental replicate
T2 construct: on protein array; also called HEATR3
T2 sequence: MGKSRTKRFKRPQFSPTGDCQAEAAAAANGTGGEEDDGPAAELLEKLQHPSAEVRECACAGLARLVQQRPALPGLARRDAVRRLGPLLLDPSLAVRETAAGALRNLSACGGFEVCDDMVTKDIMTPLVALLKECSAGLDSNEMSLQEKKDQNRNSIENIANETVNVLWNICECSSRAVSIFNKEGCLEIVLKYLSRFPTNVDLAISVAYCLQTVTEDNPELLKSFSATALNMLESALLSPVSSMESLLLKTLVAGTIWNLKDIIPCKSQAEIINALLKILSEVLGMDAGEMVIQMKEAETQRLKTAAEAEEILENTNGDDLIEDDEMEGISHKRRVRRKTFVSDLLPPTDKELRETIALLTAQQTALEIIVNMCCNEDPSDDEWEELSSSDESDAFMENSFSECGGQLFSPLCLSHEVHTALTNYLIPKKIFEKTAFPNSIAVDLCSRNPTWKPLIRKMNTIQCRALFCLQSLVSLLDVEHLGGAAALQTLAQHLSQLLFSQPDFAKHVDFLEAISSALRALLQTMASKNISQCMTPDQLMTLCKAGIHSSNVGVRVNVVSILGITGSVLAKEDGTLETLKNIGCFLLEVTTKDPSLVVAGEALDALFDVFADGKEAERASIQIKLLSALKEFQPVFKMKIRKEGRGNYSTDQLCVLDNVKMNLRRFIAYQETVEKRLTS

[3] = target: T3, DEAD-box helicase 53 (human, UniProt Q86TM3 1-631); experiment: protein array
T3 construct: on protein array; also called DDX53

[4] = target: T4, Vezatin, adherens junctions transmembrane protein (human, UniProt Q9HBM0 56-779 at identity 0.99)); experiment: protein array
T4 construct: on protein array; also called VEZT
T4 chain: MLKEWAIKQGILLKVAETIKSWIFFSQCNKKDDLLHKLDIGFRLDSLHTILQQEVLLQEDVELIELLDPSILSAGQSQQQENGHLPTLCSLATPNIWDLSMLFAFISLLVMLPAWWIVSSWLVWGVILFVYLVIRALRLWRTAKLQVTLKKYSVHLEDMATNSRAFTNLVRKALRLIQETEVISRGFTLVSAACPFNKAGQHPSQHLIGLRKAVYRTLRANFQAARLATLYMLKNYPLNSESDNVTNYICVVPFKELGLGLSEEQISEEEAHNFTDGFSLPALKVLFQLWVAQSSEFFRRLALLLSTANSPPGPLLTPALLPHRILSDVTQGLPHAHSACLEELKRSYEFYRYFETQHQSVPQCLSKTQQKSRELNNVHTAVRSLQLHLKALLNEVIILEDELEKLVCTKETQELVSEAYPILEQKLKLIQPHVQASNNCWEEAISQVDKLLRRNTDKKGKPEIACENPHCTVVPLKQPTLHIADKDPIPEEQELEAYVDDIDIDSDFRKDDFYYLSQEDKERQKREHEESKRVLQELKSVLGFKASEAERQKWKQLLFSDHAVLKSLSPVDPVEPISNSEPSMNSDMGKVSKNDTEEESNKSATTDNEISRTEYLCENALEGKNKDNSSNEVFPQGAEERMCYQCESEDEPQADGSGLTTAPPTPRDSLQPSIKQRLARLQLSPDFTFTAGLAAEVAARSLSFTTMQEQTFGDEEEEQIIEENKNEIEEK

[5] = target: T5, nudix hydrolase 22, transcript variant 2 (human, UniProt Q9BRQ3 1-303); experiment: protein array
T5 construct: on protein array; also called NUDT22
T5 chain: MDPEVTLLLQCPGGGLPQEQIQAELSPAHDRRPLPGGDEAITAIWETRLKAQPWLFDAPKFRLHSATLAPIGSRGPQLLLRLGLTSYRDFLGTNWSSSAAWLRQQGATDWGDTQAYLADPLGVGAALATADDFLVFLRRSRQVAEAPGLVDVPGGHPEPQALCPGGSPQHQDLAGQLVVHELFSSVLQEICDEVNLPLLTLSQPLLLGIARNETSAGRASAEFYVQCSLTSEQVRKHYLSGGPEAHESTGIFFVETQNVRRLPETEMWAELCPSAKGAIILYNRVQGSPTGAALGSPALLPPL

[6] = target: T6, grancalcin, transcript variant 4 (human, UniProt P28676 1-217); experiment: protein array
T6 construct: on protein array; also called GCA
T6 sequence: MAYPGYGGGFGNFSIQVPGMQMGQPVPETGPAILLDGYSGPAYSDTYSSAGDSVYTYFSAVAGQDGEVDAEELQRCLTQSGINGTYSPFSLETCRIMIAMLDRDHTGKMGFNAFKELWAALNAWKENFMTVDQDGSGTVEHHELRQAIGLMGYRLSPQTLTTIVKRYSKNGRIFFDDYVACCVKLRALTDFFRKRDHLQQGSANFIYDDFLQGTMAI

[7] = target: T7, Rna polymerase iii subunit g (human, UniProt O15318 1-223); experiment: protein array
T7 construct: on protein array; also called POLR3G
T7 sequence: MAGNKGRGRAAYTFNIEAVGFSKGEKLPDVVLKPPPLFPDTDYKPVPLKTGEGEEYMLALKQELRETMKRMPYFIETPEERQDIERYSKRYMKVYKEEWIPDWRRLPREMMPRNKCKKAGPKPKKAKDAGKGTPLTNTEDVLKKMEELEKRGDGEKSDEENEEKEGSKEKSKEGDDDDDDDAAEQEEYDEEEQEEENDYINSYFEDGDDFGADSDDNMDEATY

[8] = target: T8, sorting nexin 1, transcript variant 1 (human, UniProt Q13596 1-522); experiment: protein array
T8 construct: on protein array; also called SNX1

[9] = target: T9, CRK like proto-oncogene, adaptor protein, transcript variant 1 (human, UniProt P46109 1-303); experiment: protein array, with experimental replicate
T9 construct: on protein array

[10] = target: T10, F-box protein 2 (human, UniProt Q9UK22 1-296); experiment: protein array
T10 construct: on protein array; also called FBXO2
T10 sequence: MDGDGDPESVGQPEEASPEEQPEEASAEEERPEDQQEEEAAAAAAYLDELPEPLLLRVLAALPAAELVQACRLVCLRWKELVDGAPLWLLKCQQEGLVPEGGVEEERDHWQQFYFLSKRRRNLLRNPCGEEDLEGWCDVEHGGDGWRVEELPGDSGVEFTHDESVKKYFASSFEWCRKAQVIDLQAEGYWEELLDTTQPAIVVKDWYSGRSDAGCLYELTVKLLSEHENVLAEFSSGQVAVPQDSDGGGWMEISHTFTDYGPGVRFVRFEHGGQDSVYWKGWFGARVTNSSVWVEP

[11] = target: T11, tubulin gamma 1 (human, UniProt P23258 1-451); experiment: protein array
T11 construct: on protein array; also called TUBG1
T11 sequence (P23258 whole entry): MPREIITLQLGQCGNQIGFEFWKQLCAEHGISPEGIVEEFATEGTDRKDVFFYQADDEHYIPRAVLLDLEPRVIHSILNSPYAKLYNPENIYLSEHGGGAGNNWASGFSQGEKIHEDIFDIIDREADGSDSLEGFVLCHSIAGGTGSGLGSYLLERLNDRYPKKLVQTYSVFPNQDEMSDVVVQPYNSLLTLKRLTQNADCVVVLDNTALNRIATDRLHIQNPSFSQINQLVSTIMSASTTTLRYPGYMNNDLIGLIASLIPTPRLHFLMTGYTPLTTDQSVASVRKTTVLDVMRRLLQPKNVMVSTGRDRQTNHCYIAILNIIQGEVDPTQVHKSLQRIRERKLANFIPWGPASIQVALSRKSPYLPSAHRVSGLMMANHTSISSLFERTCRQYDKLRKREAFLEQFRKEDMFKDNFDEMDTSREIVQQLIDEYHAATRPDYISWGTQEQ

T3 sequence (Q86TM3 other isoform, or with tags, fused parts or gaps limits assumed): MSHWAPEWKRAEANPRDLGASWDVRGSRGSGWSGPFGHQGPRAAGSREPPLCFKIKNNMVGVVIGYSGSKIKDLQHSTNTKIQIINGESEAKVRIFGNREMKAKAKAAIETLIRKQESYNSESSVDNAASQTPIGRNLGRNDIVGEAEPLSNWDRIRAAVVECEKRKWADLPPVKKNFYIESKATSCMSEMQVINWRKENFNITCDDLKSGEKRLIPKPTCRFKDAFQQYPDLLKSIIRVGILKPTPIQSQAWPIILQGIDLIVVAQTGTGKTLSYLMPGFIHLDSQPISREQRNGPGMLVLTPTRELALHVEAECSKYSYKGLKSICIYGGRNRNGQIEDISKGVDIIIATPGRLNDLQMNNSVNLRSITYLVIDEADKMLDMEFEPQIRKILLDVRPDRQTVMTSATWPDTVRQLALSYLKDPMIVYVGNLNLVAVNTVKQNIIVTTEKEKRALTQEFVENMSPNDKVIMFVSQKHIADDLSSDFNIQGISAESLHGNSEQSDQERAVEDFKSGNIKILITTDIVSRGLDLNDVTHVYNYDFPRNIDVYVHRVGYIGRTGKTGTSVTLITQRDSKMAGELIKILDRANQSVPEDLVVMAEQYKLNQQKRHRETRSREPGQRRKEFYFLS
T9 sequence (P46109 whole entry, change not shown): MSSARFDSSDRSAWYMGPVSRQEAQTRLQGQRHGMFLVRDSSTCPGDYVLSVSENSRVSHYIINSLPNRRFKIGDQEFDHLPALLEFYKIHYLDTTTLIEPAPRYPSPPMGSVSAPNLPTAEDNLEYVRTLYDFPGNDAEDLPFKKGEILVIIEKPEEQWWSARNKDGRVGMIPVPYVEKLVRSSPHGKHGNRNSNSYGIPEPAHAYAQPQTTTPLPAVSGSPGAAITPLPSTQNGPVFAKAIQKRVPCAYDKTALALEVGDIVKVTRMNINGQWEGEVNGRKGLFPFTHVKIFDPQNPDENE
T8 sequence (Q13596 whole entry, change not shown): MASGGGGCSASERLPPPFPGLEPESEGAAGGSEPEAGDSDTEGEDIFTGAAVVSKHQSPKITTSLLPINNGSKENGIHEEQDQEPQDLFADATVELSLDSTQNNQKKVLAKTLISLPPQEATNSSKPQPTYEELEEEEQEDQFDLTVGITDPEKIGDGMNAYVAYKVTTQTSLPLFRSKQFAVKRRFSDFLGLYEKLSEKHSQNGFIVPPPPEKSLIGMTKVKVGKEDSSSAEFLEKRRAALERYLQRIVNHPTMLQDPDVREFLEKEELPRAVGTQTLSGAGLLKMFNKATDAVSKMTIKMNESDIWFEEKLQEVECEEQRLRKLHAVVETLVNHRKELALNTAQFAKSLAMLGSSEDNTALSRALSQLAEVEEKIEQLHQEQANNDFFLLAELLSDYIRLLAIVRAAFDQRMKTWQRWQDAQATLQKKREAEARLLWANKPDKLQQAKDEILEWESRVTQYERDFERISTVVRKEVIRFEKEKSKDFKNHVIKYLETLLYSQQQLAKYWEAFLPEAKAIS

B1: TOVA1003 (antibody)
VH: GEQLLESGGGLVQPGGSLRLSCAASGFTFSHYAMTWVRQAPGKGLEWVSGVSGSGFTTYYADSVKGRFTISRDNAQNTLYLHMNSLRAEDTAIYYCVKDLEVSIGHNFDFWGQGTLVTVSSASTKGPSVFPLAPSSKSTSGGTAALGCLVKDYFPEPVTVSWNSGALTSGVHTFPAVLQSSGLYSLSSVVTVPSSSLGTQTYICNVNHKPSNTKVDKRV
VL: EVQMTQSPSSLSASVGDRVTITCRASQHIAGRLNWYQQKPGKAPKLLIHSASSVQREVPSRFGGSGFGTDFTLTIYSLQAEDFATYFCQQSYYTPPTFAGGTRVDLKRTVAAPSVFIFPPSDEQLKSGTASVVCLLNNFYPREAKVQWKVDNALQSGNSQESVTEQDSKDSTYSLSSTLTLSKADYEKHKVYACEVTHQGLSSPVTKSFNRGEC
notes: VH/VL tied via antigen in summary, not by name in this stretch
binding result [1]: binds

B2: TOVA1004 (antibody, V domains shown)
VH: EVQLVESGGGLVKPGGSLRLSCAASGFTFSSYSMNWVRQAPGKGLEWVSSISSSSSYIYYADSVKGRFTISRDNAKNSLYLQMNSLRAEDTAVYYCARDRGVVVVAATPYYYGMDVWGQGTTVTVSS
VL: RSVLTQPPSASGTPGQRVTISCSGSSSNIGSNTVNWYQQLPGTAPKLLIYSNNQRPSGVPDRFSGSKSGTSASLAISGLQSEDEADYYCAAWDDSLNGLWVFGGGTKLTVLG
notes: as for B1
binding result [2]: binds

B3: TOVA1005 (antibody, V domains shown)
VH: QITLKESGPTLVKPTQTLTLTCTFSGFSLSTNGVGVGWIRQPPGKALEWLALINWDDDKRYSPSLKSRLTITKDTSKNQVVLTMTNLDPVDTATYYCVHARDDYGDSAWSTGPVWGQGTLVTVSS
VL: DFLLTQPHSVSESPGKTVTISCTRSSGSIASNYVQWYQQRPGSSPSTVIYEDHQRPSGVPGRFSGSIDSSSNSASLTISGLKTEDEADYFCQSSDSNNHVVFGGGTKLTVLG
notes: as for B1
binding result [3]: binds | binding result [4]: binds

B4: TOVA1007 (antibody, V domains shown)
VH: PVQLQESGPGLVNPSQTLSLTCTVSGGSISSGGYCWSWVRQHPGKGLEWIGCIYYIGTTYYMRSLKSRLIISIDTSKNQFSLKLTSVTAADSAVYYCARGGELLGGFGYSGMDVWGQGTTVTVSS
VL: not shown
notes: as for B1
binding result [5]: binds

B5: TPAN1001 (antibody, V domains shown)
VH: QVQLVQSGAEVKKPGSSVKVSCKASRGTFSNHAVSWVRQAPGQGLEWVGGIIPVFGPPNYAQKFRGRVTITADRSTNTAYMELNSLRSEDTAVYYCARTQWGTDVEATNPYYYFMDVWGKGTTVTVSS
VL: EIVLTQSPGTLSLSPGHRATLSCRASQDVASTYLAWYQQKPGQAPRLLIYGASSRATGIPDRFSGSGSGTDFTLTISRLEPEDFAVFYCQYYGGSPGFTFGPGTKVDFKR
notes: as for B1
binding result [6]: binds

B6: TPAN1003 (antibody, V domains shown)
VH: QVQLVQSGAEVKKPGASVKISCQAFGYNFIDNAIHWVRQAPGQRPEWMGWINAGNGNTRYSQNFQGRVTITKVTSASTAYMEMSRLKSEDTAVYFCARSSKWTDWHFDYWGQGTLVTVSS
VL: EIVLTQSPGTLSLSPGETATLSCRASQSVANNYLAWHQQKPGQAPRLLIYGASKRAAGIPDRFSGSGSGTEFTLTISRLEPEDCAVYYCQEYVKSPGFAFGPGTRVDIKR
notes: as for B1
binding result [7]: binds

B7: TPAN1004 (antibody, V domains shown)
VH: QIQLVQSGAEVKKPGASVKVSCKTSGYTFTHYGVAWVRQAPGQGPEWMGWISPYNGNIEYGQKFQGRVTMTTDTSTNTAYMELRSLRYDDTAVYYCARDLDEINSSWLDPWGQGTLIIVSP
VL: EIVLTQSPATLSLSPGERATLSCRASQSVSSNYLAWYQQKPGQAPRLLIHGASSRATGFPDRFSGSGSGTDFTLTINRLEPEDFAVYYCQQYGTSPQTFGQGTKVEIKR
notes: as for B1
binding result [8]: binds

B8: TPAN1006 (antibody, V domains shown)
VH: QVQLVQSGAEVKKPGASVKLSCKPSGYTFSSYYIHWLRQAPGQGLEWMGIINPSGGYTSSAQKFQGRVTMTRDTSTSTIYMELSSLRAEDTAVYYCARRGEVGTMVRVFRKPFDYWGQGTLVTVSS
VL: QSVLTQPPSVSGAPGQRVTISCTGSSSNIGAQYDVHWYKVIPGTAPKLLIYGNDNRPSGVPDRFSGSKSGTSASLAITGLQSEDEADYYCQSNDISLSGSVVFGGGTKLTVLG
notes: as for B1
binding result [9]: binds

B9: TPAN1007 (antibody, V domains shown)
VH: PVQLVQSGAEVKKPGESLKISCQGSGYNFSRYWIGWVRQMPGKGLEWMGVVFPGDSDIRYSLSFQGHITIYADNSISTAYLQWSSLKASDTAIYYCATTSTMPMPTRGRDWFDPWGQGTLVTVSS
VL: PSVLTQPPSVSGAPGQRVTISCTGSSSNIGAGYDVHWYQQLPGTAPKLLIYANTNRPSGVPDRFSGSKSGTSASLAITGLQAEDEADYYCQSYDNSLSGGVFGGGTKLTVLG
notes: as for B1
binding result [10]: binds | binding result [11]: binds
